Assay [1] deals with human neonatal Fc receptor FcRn/β2m, soluble recombinant (human) (UniProt P55899). Put plainly: flow cytometry, labelled FcRn on CHO-displayed HSA, pH 5.5. (In flow cytometry, cells or beads pass a laser one at a time.)
Assay [2] shares this target. Kind of assay: flow cytometry, labelled FcRn on CHO-displayed HSA, pH 7.4.

This passage reports mean geoMFI results from patent US20200325209A1.

Sequence of human neonatal Fc receptor FcRn/β2m, soluble recombinant (human) (P55899 24-297 limits assumed, chain 1 of 2): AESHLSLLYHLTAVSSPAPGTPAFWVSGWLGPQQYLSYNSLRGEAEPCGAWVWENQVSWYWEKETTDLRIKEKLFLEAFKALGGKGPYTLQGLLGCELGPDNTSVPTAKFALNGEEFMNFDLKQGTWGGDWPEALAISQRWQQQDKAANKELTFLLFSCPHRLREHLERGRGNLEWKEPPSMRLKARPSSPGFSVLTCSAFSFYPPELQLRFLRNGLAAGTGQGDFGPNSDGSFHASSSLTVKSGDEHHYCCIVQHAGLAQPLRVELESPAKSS
Sequence of human neonatal Fc receptor FcRn/β2m, soluble recombinant (human) (P61769 21-119 limits assumed, chain 2 of 2, further chain): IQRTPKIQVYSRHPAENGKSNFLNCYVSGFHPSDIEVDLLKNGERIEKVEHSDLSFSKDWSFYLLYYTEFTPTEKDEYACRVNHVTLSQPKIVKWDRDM

For “HSA [Q522R], membrane-tethered on CHO cells (from UniProt P02768 25-609)”, the mean geoMFI was found to be 386 in assay [1] and 17.8 in assay [2].
Taken in the same sequence, the figures for “HSA [G572V], membrane-tethered on CHO cells (from UniProt P02768 25-609)” were 58.2 and 20.7.
For “HSA [Q522A], membrane-tethered on CHO cells (from UniProt P02768 25-609)”, the mean geoMFI in assay [2] came out at 17.8.
Still for that read-out and setting: next, “HSA [Q522N], membrane-tethered on CHO cells (from UniProt P02768 25-609)”: 31.4; “HSA [Q522H], membrane-tethered on CHO cells (from UniProt P02768 25-609)”: 27.2.
For the substance “HSA [G572P], membrane-tethered on CHO cells (from UniProt P02768 25-609)”, the mean geoMFI in assay [1] worked out at 216; in assay [2], 30.6.
Taken in the same sequence, the figures for “HSA [Q522T], membrane-tethered on CHO cells (from UniProt P02768 25-609)” were 290 and 28.3.
Taken in the same sequence, the figures for “HSA [Q522E], membrane-tethered on CHO cells (from UniProt P02768 25-609)” were 128 and 29.2.
Taken in the same sequence, the figures for “HSA [Q522D], membrane-tethered on CHO cells (from UniProt P02768 25-609)” were 317 and 22.4.
Take “HSA [G572Q], membrane-tethered on CHO cells (from UniProt P02768 25-609)”: in assay [1], the mean geoMFI worked out at 201.
Consider “HSA [Q522S], membrane-tethered on CHO cells (from UniProt P02768 25-609)”, for which the figures for the mean geoMFI in assay [1] and in assay [2] were 258 and 32.7, respectively.
Turning to “HSA [Q522P], membrane-tethered on CHO cells (from UniProt P02768 25-609)”, the mean geoMFI in assay [2] is 29.4.
Consider “HSA [G572D], membrane-tethered on CHO cells (from UniProt P02768 25-609)”, for which the mean geoMFI turned out to be 305 in assay [1] and 32.7 in assay [2].
Taken in the same sequence, the figures for “HSA [G572N], membrane-tethered on CHO cells (from UniProt P02768 25-609)” were 85.8 and 36.4.
